Measured values published in patent publication EP4700044A1, “PROTEIN ANALOGUE AND USE THEREOF” (Shanghai Duomirui Biotechnology., Ltd., priority 2023, dated 2024).

target: FGFR1c, P11362; assay: cell-based or functional assay
Sequence (P11362 22-822): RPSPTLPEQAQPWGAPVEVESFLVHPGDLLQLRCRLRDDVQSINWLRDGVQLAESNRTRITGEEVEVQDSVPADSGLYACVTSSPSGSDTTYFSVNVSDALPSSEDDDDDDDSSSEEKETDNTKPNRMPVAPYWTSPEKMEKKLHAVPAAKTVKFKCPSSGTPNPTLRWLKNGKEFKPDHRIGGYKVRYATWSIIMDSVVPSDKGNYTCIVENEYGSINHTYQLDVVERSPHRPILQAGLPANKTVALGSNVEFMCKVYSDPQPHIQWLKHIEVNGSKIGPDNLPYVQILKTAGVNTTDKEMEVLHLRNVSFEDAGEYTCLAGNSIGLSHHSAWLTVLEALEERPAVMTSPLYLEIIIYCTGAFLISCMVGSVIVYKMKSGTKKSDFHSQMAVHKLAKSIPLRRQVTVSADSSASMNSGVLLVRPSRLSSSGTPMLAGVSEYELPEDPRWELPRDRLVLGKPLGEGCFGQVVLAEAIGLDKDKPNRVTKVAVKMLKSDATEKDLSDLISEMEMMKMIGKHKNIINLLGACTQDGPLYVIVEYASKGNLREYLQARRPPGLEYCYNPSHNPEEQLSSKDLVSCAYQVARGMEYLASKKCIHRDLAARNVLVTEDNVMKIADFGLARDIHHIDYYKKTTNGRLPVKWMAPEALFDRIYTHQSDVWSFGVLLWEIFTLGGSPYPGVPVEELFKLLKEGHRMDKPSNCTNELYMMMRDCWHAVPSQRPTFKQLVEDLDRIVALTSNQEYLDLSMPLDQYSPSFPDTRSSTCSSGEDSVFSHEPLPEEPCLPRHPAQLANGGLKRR

EC50(nM), dual-luciferase reporter gene assay, iLite FGF21 assay ready cells | Binder
0.25 nM | Human mature FGF21 mutant RGE (FGF21RGE), Q9NSA1 29-209 (ligand) HPIPDSSPLLQFGGQVRQRYLYTDDAQQTEAHLEIREDGTVGGAADQSPESLLQLKALKPGVIQILGVKTSRFLCQRPDGALYGSLHFDPEACSFRERLLEDGYNVYQSEAHGLPLHLPGNKSPHRDPAPRGPARFLPLPGLPPAPPEPPGILAPQPPDVGSSDPLSMVGGSQGRSPSYES
1 nM | Human mature FGF21 mutant D38C (FGF21D38C), Q9NSA1 29-209 (ligand) HPIPDSSPLLQFGGQVRQRYLYTDDAQQTEAHLEIRECGTVGGAADQSPESLLQLKALKPGVIQILGVKTSRFLCQRPDGALYGSLHFDPEACSFRERLLEDGYNVYQSEAHGLPLHLPGNKSPHRDPAPRGPARFLPLPGLPPAPPEPPGILAPQPPDVGSSDPLSMVGGSQGRSPSYES
0.28 nM | Human mature FGF21 mutant D46C (FGF21D46C), Q9NSA1 29-209 (ligand) HPIPDSSPLLQFGGQVRQRYLYTDDAQQTEAHLEIREDGTVGGAACQSPESLLQLKALKPGVIQILGVKTSRFLCQRPDGALYGSLHFDPEACSFRERLLEDGYNVYQSEAHGLPLHLPGNKSPHRDPAPRGPARFLPLPGLPPAPPEPPGILAPQPPDVGSSDPLSMVGGSQGRSPSYES
0.3 nM | Human mature FGF21 mutant K122C (FGF21K122C), Q9NSA1 29-209 (ligand) HPIPDSSPLLQFGGQVRQRYLYTDDAQQTEAHLEIREDGTVGGAADQSPESLLQLKALKPGVIQILGVKTSRFLCQRPDGALYGSLHFDPEACSFRERLLEDGYNVYQSEAHGLPLHLPGNCSPHRDPAPRGPARFLPLPGLPPAPPEPPGILAPQPPDVGSSDPLSMVGGSQGRSPSYES
0.28 nM | Human mature FGF21 mutant H125C (FGF21H125C), Q9NSA1 29-209 (ligand) HPIPDSSPLLQFGGQVRQRYLYTDDAQQTEAHLEIREDGTVGGAADQSPESLLQLKALKPGVIQILGVKTSRFLCQRPDGALYGSLHFDPEACSFRERLLEDGYNVYQSEAHGLPLHLPGNKSPCRDPAPRGPARFLPLPGLPPAPPEPPGILAPQPPDVGSSDPLSMVGGSQGRSPSYES
4.61 nM | Compound 5.1, Q9NSA1 29-209 (ligand, here or on the partner: Cys 30 (E30C) carries the albumin-binding agent of Example 2.1, C18 Dicarboxylic Acid-AEEA-gGlu-gGlu-Lys(bromoacetyl)-COOH (bromine displaced by the thiol)) HPIPDSSPLLQFGGQVRQRYLYTDDAQQTCAHLEIREDGTVGGAADQSPESLLQLKALKPGVIQILGVKTSRFLCQRPDGALYGSLHFDPEACSFRERLLEDGYNVYQSEAHGLPLHLPGNKSPHRDPAPRGPARFLPLPGLPPAPPEPPGILAPQPPDVGSSDPLSMVGGSQGRSPSYES
1.99 nM | Compound 5.2, Q9NSA1 29-209 (ligand, here or on the partner: Cys 38 (D38C) carries the albumin-binding agent of Example 2.1, C18 Dicarboxylic Acid-AEEA-gGlu-gGlu-Lys(bromoacetyl)-COOH (bromine displaced by the thiol)) HPIPDSSPLLQFGGQVRQRYLYTDDAQQTEAHLEIRECGTVGGAADQSPESLLQLKALKPGVIQILGVKTSRFLCQRPDGALYGSLHFDPEACSFRERLLEDGYNVYQSEAHGLPLHLPGNKSPHRDPAPRGPARFLPLPGLPPAPPEPPGILAPQPPDVGSSDPLSMVGGSQGRSPSYES
0.24 nM | Compound 5.3, Q9NSA1 29-209 (ligand, here or on the partner: Cys 46 (D46C) carries the albumin-binding agent of Example 2.1, C18 Dicarboxylic Acid-AEEA-gGlu-gGlu-Lys(bromoacetyl)-COOH (bromine displaced by the thiol)) HPIPDSSPLLQFGGQVRQRYLYTDDAQQTEAHLEIREDGTVGGAACQSPESLLQLKALKPGVIQILGVKTSRFLCQRPDGALYGSLHFDPEACSFRERLLEDGYNVYQSEAHGLPLHLPGNKSPHRDPAPRGPARFLPLPGLPPAPPEPPGILAPQPPDVGSSDPLSMVGGSQGRSPSYES
0.99 nM | Compound 5.4, Q9NSA1 29-209 (ligand, here or on the partner: Cys 122 (K122C) carries the albumin-binding agent of Example 2.1, C18 Dicarboxylic Acid-AEEA-gGlu-gGlu-Lys(bromoacetyl)-COOH (bromine displaced by the thiol)) HPIPDSSPLLQFGGQVRQRYLYTDDAQQTEAHLEIREDGTVGGAADQSPESLLQLKALKPGVIQILGVKTSRFLCQRPDGALYGSLHFDPEACSFRERLLEDGYNVYQSEAHGLPLHLPGNCSPHRDPAPRGPARFLPLPGLPPAPPEPPGILAPQPPDVGSSDPLSMVGGSQGRSPSYES
0.52 nM | Compound 5.5, Q9NSA1 29-209 (ligand, here or on the partner: Cys 125 (H125C) carries the albumin-binding agent of Example 2.1, C18 Dicarboxylic Acid-AEEA-gGlu-gGlu-Lys(bromoacetyl)-COOH (bromine displaced by the thiol)) HPIPDSSPLLQFGGQVRQRYLYTDDAQQTEAHLEIREDGTVGGAADQSPESLLQLKALKPGVIQILGVKTSRFLCQRPDGALYGSLHFDPEACSFRERLLEDGYNVYQSEAHGLPLHLPGNKSPCRDPAPRGPARFLPLPGLPPAPPEPPGILAPQPPDVGSSDPLSMVGGSQGRSPSYES
2.06 nM | Compound 5.6, Q9NSA1 29-209 (ligand, here or on the partner: Cys 38 (D38C) carries the albumin-binding agent of Example 2.2, C18 Dicarboxylic Acid-gGlu-AEEA-AEEA-Lys(bromoacetyl)-COOH (bromine displaced by the thiol)) HPIPDSSPLLQFGGQVRQRYLYTDDAQQTEAHLEIRECGTVGGAADQSPESLLQLKALKPGVIQILGVKTSRFLCQRPDGALYGSLHFDPEACSFRERLLEDGYNVYQSEAHGLPLHLPGNKSPHRDPAPRGPARFLPLPGLPPAPPEPPGILAPQPPDVGSSDPLSMVGGSQGRSPSYES
1.06 nM | Compound 5.7, Q9NSA1 29-209 (ligand, here or on the partner: Cys 46 (D46C) carries the albumin-binding agent of Example 2.2, C18 Dicarboxylic Acid-gGlu-AEEA-AEEA-Lys(bromoacetyl)-COOH (bromine displaced by the thiol)) HPIPDSSPLLQFGGQVRQRYLYTDDAQQTEAHLEIREDGTVGGAACQSPESLLQLKALKPGVIQILGVKTSRFLCQRPDGALYGSLHFDPEACSFRERLLEDGYNVYQSEAHGLPLHLPGNKSPHRDPAPRGPARFLPLPGLPPAPPEPPGILAPQPPDVGSSDPLSMVGGSQGRSPSYES
1.13 nM | Compound 5.8, Q9NSA1 29-209 (ligand, here or on the partner: Cys 122 (K122C) carries the albumin-binding agent of Example 2.2, C18 Dicarboxylic Acid-gGlu-AEEA-AEEA-Lys(bromoacetyl)-COOH (bromine displaced by the thiol)) HPIPDSSPLLQFGGQVRQRYLYTDDAQQTEAHLEIREDGTVGGAADQSPESLLQLKALKPGVIQILGVKTSRFLCQRPDGALYGSLHFDPEACSFRERLLEDGYNVYQSEAHGLPLHLPGNCSPHRDPAPRGPARFLPLPGLPPAPPEPPGILAPQPPDVGSSDPLSMVGGSQGRSPSYES
1.18 nM | Compound 5.9, Q9NSA1 29-209 (ligand, here or on the partner: Cys 125 (H125C) carries the albumin-binding agent of Example 2.2, C18 Dicarboxylic Acid-gGlu-AEEA-AEEA-Lys(bromoacetyl)-COOH (bromine displaced by the thiol)) HPIPDSSPLLQFGGQVRQRYLYTDDAQQTEAHLEIREDGTVGGAADQSPESLLQLKALKPGVIQILGVKTSRFLCQRPDGALYGSLHFDPEACSFRERLLEDGYNVYQSEAHGLPLHLPGNKSPCRDPAPRGPARFLPLPGLPPAPPEPPGILAPQPPDVGSSDPLSMVGGSQGRSPSYES
2.69 nM | Compound 5.10, Q9NSA1 29-209 (ligand, here or on the partner: Cys 46 (D46C) carries the albumin-binding agent of Example 2.3, C20 Dicarboxylic Acid-AEEA-gGlu-gGlu-Lys(bromoacetyl)-COOH (bromine displaced by the thiol)) HPIPDSSPLLQFGGQVRQRYLYTDDAQQTEAHLEIREDGTVGGAACQSPESLLQLKALKPGVIQILGVKTSRFLCQRPDGALYGSLHFDPEACSFRERLLEDGYNVYQSEAHGLPLHLPGNKSPHRDPAPRGPARFLPLPGLPPAPPEPPGILAPQPPDVGSSDPLSMVGGSQGRSPSYES
2.09 nM | Compound 5.11, Q9NSA1 29-209 (ligand, here or on the partner: Cys 122 (K122C) carries the albumin-binding agent of Example 2.3, C20 Dicarboxylic Acid-AEEA-gGlu-gGlu-Lys(bromoacetyl)-COOH (bromine displaced by the thiol)) HPIPDSSPLLQFGGQVRQRYLYTDDAQQTEAHLEIREDGTVGGAADQSPESLLQLKALKPGVIQILGVKTSRFLCQRPDGALYGSLHFDPEACSFRERLLEDGYNVYQSEAHGLPLHLPGNCSPHRDPAPRGPARFLPLPGLPPAPPEPPGILAPQPPDVGSSDPLSMVGGSQGRSPSYES
1.4 nM | Compound 5.12, Q9NSA1 29-209 (ligand, here or on the partner: Cys 125 (H125C) carries the albumin-binding agent of Example 2.3, C20 Dicarboxylic Acid-AEEA-gGlu-gGlu-Lys(bromoacetyl)-COOH (bromine displaced by the thiol)) HPIPDSSPLLQFGGQVRQRYLYTDDAQQTEAHLEIREDGTVGGAADQSPESLLQLKALKPGVIQILGVKTSRFLCQRPDGALYGSLHFDPEACSFRERLLEDGYNVYQSEAHGLPLHLPGNKSPCRDPAPRGPARFLPLPGLPPAPPEPPGILAPQPPDVGSSDPLSMVGGSQGRSPSYES
1.84 nM | Compound 5.13, Q9NSA1 29-209 (ligand, here or on the partner: Cys 46 (D46C) carries the albumin-binding agent of Example 2.4, C20 Dicarboxylic Acid-gGlu-AEEA-AEEA-Lys(bromoacetyl)-COOH (bromine displaced by the thiol)) HPIPDSSPLLQFGGQVRQRYLYTDDAQQTEAHLEIREDGTVGGAACQSPESLLQLKALKPGVIQILGVKTSRFLCQRPDGALYGSLHFDPEACSFRERLLEDGYNVYQSEAHGLPLHLPGNKSPHRDPAPRGPARFLPLPGLPPAPPEPPGILAPQPPDVGSSDPLSMVGGSQGRSPSYES
1.02 nM | Compound 5.14, Q9NSA1 29-209 (ligand, here or on the partner: Cys 122 (K122C) carries the albumin-binding agent of Example 2.4, C20 Dicarboxylic Acid-gGlu-AEEA-AEEA-Lys(bromoacetyl)-COOH (bromine displaced by the thiol)) HPIPDSSPLLQFGGQVRQRYLYTDDAQQTEAHLEIREDGTVGGAADQSPESLLQLKALKPGVIQILGVKTSRFLCQRPDGALYGSLHFDPEACSFRERLLEDGYNVYQSEAHGLPLHLPGNCSPHRDPAPRGPARFLPLPGLPPAPPEPPGILAPQPPDVGSSDPLSMVGGSQGRSPSYES
0.47 nM | Compound 5.15, Q9NSA1 29-209 (ligand, here or on the partner: Cys 125 (H125C) carries the albumin-binding agent of Example 2.4, C20 Dicarboxylic Acid-gGlu-AEEA-AEEA-Lys(bromoacetyl)-COOH (bromine displaced by the thiol)) HPIPDSSPLLQFGGQVRQRYLYTDDAQQTEAHLEIREDGTVGGAADQSPESLLQLKALKPGVIQILGVKTSRFLCQRPDGALYGSLHFDPEACSFRERLLEDGYNVYQSEAHGLPLHLPGNKSPCRDPAPRGPARFLPLPGLPPAPPEPPGILAPQPPDVGSSDPLSMVGGSQGRSPSYES
1.31 nM | Human mature FGF21 mutant E30C (FGF21E30C), Q9NSA1 29-209 (ligand) HPIPDSSPLLQFGGQVRQRYLYTDDAQQTCAHLEIREDGTVGGAADQSPESLLQLKALKPGVIQILGVKTSRFLCQRPDGALYGSLHFDPEACSFRERLLEDGYNVYQSEAHGLPLHLPGNKSPHRDPAPRGPARFLPLPGLPPAPPEPPGILAPQPPDVGSSDPLSMVGGSQGRSPSYES
